Test results taken from paper PMC5675407, “Sugar analog synthesis by in vitro biocatalytic cascade: A comparison of alternative enzyme complements for dihydroxyacetone phosphate production as a precursor to rare chiral sugar synthesis” (PLoS ONE, 2017).

B1: GlpKCb (Clostridium beijerinckii NCIMB 8052) (protein)
chain: MKKYILALDQGTTSSRAIIFDKEQNILGVSQKEFTQIYPNQGWVEHNPLEIWASQYGVLQEVIAKTNITQEEVAAIGITNQRETTIVWDKNTGEPVYNAIVWQCRRTAGIIEELKLDKEFSEYVKENTGLLLDAYFSATKIKWILDNVEGARERAEKGELLFGTVDTWLVWKLTNGKVHVTDYTNASRTMLYNIKELRWDERILEKLNIPKSMLPEVKNSSEVYGYTNLGGTGGVRVPIAGMAGDQQCALFGQTCFEEGSVKNTYGTGCFLLMNTGEKMIHSKNGLVSTIAVGIDGKVQYALEGSVFVGGAVIQWIRDELKLVTDAADTEYFAQKVEDNGGVYVVPAFTGLGAPYWDMYARGAIFGLTRGANRNHIIRAALESIAYQSKDLIDAMQEDAGCKLTRLKVDGGASRNNLLMQFQADITGAEVVRPIITETTALGAAYLAGLAVGFWKSKEEIAEKWAVSQSYSPNLAEEKKEKLYKGWKKAVKRAEGWEEE
notes: recombinant, His-tagged (pDEST17 or pETCC2), E. coli, Ni and size exclusion purified
B2: AceKMs (Mycolicibacterium smegmatis MC2 155) (protein)
chain: MTVLVVNSGSSSLKYAVVRPASGEFLADGIIEEIGSGAVPDHDAALRAAFDELAAAGLHLEDLDLKAVGHRMVHGGKTFYKPSVVDDELIAKARELSPLAPLHNPPAIKGIEVARKLLPDLPHIAVFDTAFFHDLPAPASTYAIDRELAETWHIKRYGFHGTSHEYVSQQAAIFLDRPLESLNQIVLHLGNGASASAVAGGKAVDTSMGLTPMEGLVMGTRSGDIDPGVIMYLWRTAGMSVDDIESMLNRRSGVLGLGGASDFRKLRELIESGDEHAKLAYDVYIHRLRKYIGAYMAVLGRTDVISFTAGVGENVPPVRRDALAGLGGLGIEIDDALNSAKSDEPRLISTPDSRVTVLVVPTNEELAIARACVGVV
notes: recombinant, His-tagged (pDEST17 or pETCC2), E. coli

Key:
Test in all cases: purified protein
[1] = substrate: Nc1ncnc2c1ncn2[C@@H]1O[C@H](COP(=O)(O)OP(=O)(O)OP(=O)(O)O)[C@@H](O)[C@H]1O; format: biochemical, Clostridium beijerinckii; conditions: glycerol in excess, 10 mM MgCl2, 50 mM NaHCO3 pH 9.2, room temperature
Excerpt: (§1) HPLC of ADP and ATP on GlpKCb

[2] = substrate: OCC(O)CO; format: biochemical, Clostridium beijerinckii; conditions: ATP in excess, 10 mM MgCl2, 50 mM NaHCO3 pH 9.2, room temperature
Excerpt: as §1

[3] = substrate: Nc1ncnc2c1ncn2[C@@H]1O[C@H](COP(=O)(O)OP(=O)(O)O)[C@@H](O)[C@H]1O; format: biochemical, Mycolicibacterium smegmatis; conditions: acetyl phosphate in excess, Mg2+, room temperature, buffer as for glycerol kinase (pH 9.2)
Excerpt: (§2) HPLC of ADP and ATP on AceKMs

[4] = substrate: CC(=O)OP(=O)(O)O; format: biochemical, Mycolicibacterium smegmatis; conditions: ADP in excess, Mg2+, room temperature, buffer as for glycerol kinase (pH 9.2)
Excerpt: as §2

Protein | Km [1] | kcat [1] | kcat/Km [1] | Km [2] | kcat [2] | kcat/Km [2] | Km [3] | kcat [3] | kcat/Km [3] | Km [4] | kcat [4] | kcat/Km [4]
B1 | 135 ± 16 µM | 93 s⁻¹ | 690000 M⁻¹ s⁻¹ | 356 ± 27 µM | 93 s⁻¹ | 260000 M⁻¹ s⁻¹ | – | – | – | – | – | –
B2 | – | – | – | – | – | – | 113 ± 9 µM | 1100 s⁻¹ | 9.8e+06 M⁻¹ s⁻¹ | 390 ± 8 µM | 1103 s⁻¹ | 2.8e+06 M⁻¹ s⁻¹
